Results reported in patent US4608364A, “Pharmaceutical agent for the treatment of diabetes mellitus” (Hoechst Aktiengesellschaft, priority 1983, dated 1986).

Assays:
[1] = unmodified hormone, background statement; region of maximum insolubility; cited from earlier work
[2] = based on the amount of protein; cited from earlier work
[3] = Biological activity of insulins and insulin derivatives; conditions: specific activity of the active compound used in the formulation

In the case of “proinsulin: naturally occurring precursor of insulin, A and B chain linked by the C peptide”, the isoelectric point [1] is given as 5.4 and the “inherent biological activity as fraction of the activity of insulin” value [2] is given as “about 1/8”.
For insulin [reference compound], the isoelectric point [1] is listed as 5.4.
For “Porcine proinsulin: porcine proinsulin, dissolved component of Example 2”, the “biological activity per mg” value [3] was 3.3 IU/mg.
